Literature values as cited in article PMC10631023.
Several values for one entry are separate records, joined by “and”; a condition that tells them apart may be missing. Equal values may be shown once.

How the values were obtained:
[1] = molecular target: PSGL-1 (Homo sapiens) (UniProt Q14242)
[2] = molecular target: VSIG-3 (Homo sapiens) (UniProt Q5DX21)
UniProt Q5DX21, sequence (Q5DX21 23-241): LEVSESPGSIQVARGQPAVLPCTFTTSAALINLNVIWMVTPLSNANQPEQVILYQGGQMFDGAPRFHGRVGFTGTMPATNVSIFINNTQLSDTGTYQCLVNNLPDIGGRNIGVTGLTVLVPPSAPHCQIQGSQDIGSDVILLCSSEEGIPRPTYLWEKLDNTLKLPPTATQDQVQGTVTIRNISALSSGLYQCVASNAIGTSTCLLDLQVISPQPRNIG

UniProt Q14242, sequence (Q14242 42-320): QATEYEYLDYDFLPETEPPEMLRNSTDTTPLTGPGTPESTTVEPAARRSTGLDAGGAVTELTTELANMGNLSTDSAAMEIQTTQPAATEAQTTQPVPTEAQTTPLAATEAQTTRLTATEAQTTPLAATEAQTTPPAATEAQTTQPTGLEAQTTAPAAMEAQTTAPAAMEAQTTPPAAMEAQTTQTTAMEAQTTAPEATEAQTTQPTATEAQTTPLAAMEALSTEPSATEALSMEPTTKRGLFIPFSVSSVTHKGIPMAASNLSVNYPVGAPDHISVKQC

In the case of VISTA (from UniProt Q9H7M9), the Kd [1] is listed as 4 nM and the Kd [2] is listed as 20 nM and 80 nM.
